Experimental data from PMC6373967.
Read-outs that look alike come from different tables or passages of the source. Each block holds one substance with its values, some of them ahead of it.

Key:
CD155 (Homo sapiens) = CD155 (Homo sapiens) (UniProt P15151); settings: cited from earlier work
nectin-1 (Homo sapiens) = nectin-1 (Homo sapiens) (UniProt Q15223); settings: cited from earlier work
nectin-1(346t) (human) [1] = molecular target: nectin-1(346t) (human) (UniProt Q15223); assay: SPR; BIAcore 3000, 25°C, HBS-EP pH 7.4; about 2000 RU of nectin-1(346t) or nectin-1(143t) amine-coupled to a CM5 chip; hCD96t flowed at 50 ul/min, 2 min association and 2 min dissociation; 1:1 Langmuir model with drifting baseline, global fit
nectin-1(346t) (human) [2] = molecular target: nectin-1(346t) (human) (UniProt Q15223); assay: as above; remark: listed apart in the source
nectin-1(143t) (human) = assay: as above

nectin-1, sequence (Q15223 31-355): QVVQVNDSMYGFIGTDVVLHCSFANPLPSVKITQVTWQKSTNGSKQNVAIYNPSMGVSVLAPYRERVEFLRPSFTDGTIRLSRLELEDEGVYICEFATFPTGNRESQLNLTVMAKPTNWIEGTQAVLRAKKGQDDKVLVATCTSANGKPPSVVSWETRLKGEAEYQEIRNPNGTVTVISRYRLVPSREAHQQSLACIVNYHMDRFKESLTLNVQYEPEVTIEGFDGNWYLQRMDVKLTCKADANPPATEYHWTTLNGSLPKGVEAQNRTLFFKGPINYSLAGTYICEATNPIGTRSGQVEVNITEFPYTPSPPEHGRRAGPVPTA

Substance: CD96 (from UniProt P40200)
- Kd (CD155 (Homo sapiens)): 0.0376 µM

Substance: nectin-1 (from UniProt Q15223)
- Kd (nectin-1 (Homo sapiens)): 17.5 µM

- Kd (nectin-1(346t) (human) [1]): 2.34 µM
- Kd (nectin-1(346t) (human) [2]): 2.43 µM
- koff (nectin-1(346t) (human) [2]): 0.0094 s⁻¹
- kon (nectin-1(346t) (human) [2]): 3900 M⁻¹ s⁻¹
- Kd (nectin-1(143t) (human)): 3.22 µM
- koff (nectin-1(143t) (human)): 0.012 s⁻¹
- kon (nectin-1(143t) (human)): 3200 M⁻¹ s⁻¹
Substance: hCD96(516t) (domain or fragment)
